Test [1] concerns the target Cry1Ia38 protoxin (Bacillus thuringiensis). The test can be described thus: SDS-PAGE under non-denaturing conditions; SDS-12%PAGE of SEC peak fractions; loading buffer without SDS or β-mercaptoethanol, heated at 50 °C for 3 min to preserve oligomers.
Test [2] shares this target. The test can be described thus: SEC; Superdex-200 10/300 GL on an ÄKTA Explorer 100; sizes interpolated from protein standards (44-669 kDa); purified proteins loaded. On the technique in general: SEC sorts molecules by how far they enter the pores of the column.
The target of test [3] is Cry1Ia trypsin intermediate (T-Int) (Bacillus thuringiensis). The test can be described thus: SEC.
For test [4] the target is unchanged. The test can be described thus: SDS-PAGE under non-denaturing conditions; SDS-12%PAGE of SEC peak fractions; loading buffer without SDS or β-mercaptoethanol, heated at 50 °C for 3 min to preserve oligomers.
Test [5] has as its target fully trypsinized Cry1Ia protein (toxin) (Bacillus thuringiensis). The test can be described thus: SEC; Superdex-200 10/300 GL on an ÄKTA Explorer 100; sizes interpolated from protein standards (44-669 kDa); purified proteins loaded.
For test [6], the target named is Cry1Ia gut fluid intermediate (GF-Int) (Bacillus thuringiensis). The test can be described thus: SEC.

From paper PMC11860814 come the findings set out here.

Usually stoichiometry N stands for a count of units in the complex or per binding partner.

For Cry1Ia38 protoxin (natural protein), the stoichiometry N in test [1] and in test [2] was 2 in each case.

Consider “Cry1Ia trypsin intermediate (T-Int) (domain or fragment)”, for which the stoichiometry N in test [3] and in test [4] was 2 throughout.

“fully trypsinized Cry1Ia protein (toxin) (domain or fragment)”: in test [5], the stoichiometry N was 2.

“Cry1Ia gut fluid intermediate (GF-Int) (domain or fragment)” yielded a stoichiometry N in test [6] of 2.
